In publication PMC2597655 one finds Kd data, which are given here for one molecule.

The target in one data set is DNA polymerase beta WT (UniProt P06766 1-335). Description: EMSA.
Data set [1] addresses DNA polymerase beta I260Q (UniProt P06766 1-335, I260Q). Description: EMSA. Background: Mobility shift assays separate free from complexed probe on a gel.

B1: CII5T A:A (5 nt gap, mispaired primer terminus) (dsDNA)
DNA 1: TTGCGACTTATCAACGCCCACAA
DNA 2: GCTGTCTTCTCAGTTTC
DNA 3: GAAACTGAGAAGACAGCTACTGATGTGGGCGTTGATAAGTCGCAA
modifications: 5'-phosphate on downstream oligo and template
Broadly, the Kd is the equilibrium constant for the complex coming apart. Regarding B1, the Kd is 6 nM in the data set with DNA polymerase beta WT and 2 nM in data set [1].
